# Measured values taken from the nanobody polyreactivity screen of Harvey et al. (2022).
# Test: yeast display, Sf9 membrane polyspecificity reagent, FACS + sequencing; frameworks hold sequencing errors
# Method in brief: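 In a synthetic yeast display library (Saccharomyces cerevisiae BJ5465), nanobody expression was induced with galactose for 36–48 hours. FACS gates were set low and high (top ~1%) using anti-HA fluorescence for expression and streptavidin fluorescence for binding of the Sf9 membrane reagent. Each polyreactivity label is drawn from the gate of origin.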
row,Sequence,polyreactivity (PSR sort gate)
1,QVQLVESGGGLVQAGGSLRLSCAASGSIFFRNAMGWYRQAPGKERELVAAITWNGGSTYYADSVKGRFTISRDNAKNTVYLQMNSLKPEDTAVYYCNKYYYYRDSGYWGQGTQVTVSS,high polyreactivity
2,QVQLVESGRGLVQAGGSLRLRCAASGRNIRAYAMGCYRQAPGTERDLVAAITWSGGGTYYADSVKGRFTISRDNAKNTVYLQMTSLKPEDTAVYYCAAVTTLRPSWKRYYYWGQGTQVTVSS,high polyreactivity
3,QVQLVESGGGLVQAGGSLRLSCAASGSIFLVYAMGWYRQAPGKERELVAVITKSGGSTYYADSVKGRFTISRDNAKNTVYLQMNSLKPEDTAVYYCAARRRGARHDYWGQGTQVTVSS,high polyreactivity
4,QVQLVESGGGLVQAGGSLRLTCAASGSIIKRNAMGWYRQAPGKERELVASISSGGSTKYADSVKGRFTISRDNAKTTVYLQMNSLKPEDTAVYYCPKRSSQTRRAYDYWGQGTQVTVSS,low polyreactivity
5,QVQRVESGGGLVQAGGSLRLSCAASGITFYPYTMGWYRQAPGKQRELVAAISSSGGSTNYADSVKGRFTISRDNAKNSDYLQMISLKPDDSAVYYCAKRYAGNASSDGDSWGQGTQVTVSS,low polyreactivity
6,QVQLVESGGGLVQAGGSLRLSCAASGSTFHTYGLGWYRQAPGKERELVAAIDLSDGSTYYADSVKGRFTISRDNAKNTVYLQMNSLKPADTAVYYCKADYFPKPYRPDDYWGQGTQVTVSS,low polyreactivity
7,QVQLVESGGGLVQAGGSLRLSCAASGRTFAYYAMGWYLQAPGKERELVAAISSGGGSTYYADSVKGRFTISRDNAKNTVYLQMNSLKPEDTAVYYCNKGFNYGGWFKKYGYWGQGTQVTVSS,high polyreactivity
8,QVQLVESGGGLVQAGGSLRLSCAASGRTFYSYVMGWYRQAPGKERELVAAISSTGGTYADSVKGRFTISRDNAKNTVYLQMNSLKPEDTAVYYCAARVHFPYPDYAWITVLYDYWGQGTQVTVSS,low polyreactivity
9,QVQLQESGGGMVQAGGSLRLSCAASGYISWADYKGWYRQAPGKERELVAGIGYGSTTYYADSVKGRFTISRDNAINTAYLQMNSLKPEDTAVYYCAVGWYRDTAYKYWGHGTQVTVSS,low polyreactivity
10,QVQLVESGGGLVQAGGSLRLSCAASGFIFSSYAMGWYRQAPGKEREFVAVISTGGGSTYYADSVKGRFTISRDNAKITVYLQMNSLKPEDTAVYYCAAKLYDSGGRYWYDYWGQGTQVTVSS,high polyreactivity
11,QVQRVESGGGLVQAGGRLRISCAASGRTFRGNDMGWYRQAPGKERELVPTITRNGGSTRYADSVKGRFTISRDNAKNTVYLQMNSLQPEDTAVYYCAAREKYTPALEVEYWGQGTQVTVSS,high polyreactivity
12,QVQLVESGGGLDQAGGSLRLSCAASGIIFSSYAMGWYRQAPGKERELVAAISYSGGSTYYADSVKGRFTISRDNAKNTVYLQMNSLKPEDTAVYYCAAQGYSPGGYDYWGQGTQVTVSS,low polyreactivity
13,QVQLVESGGGLVQAGGSLRLSCAASGNIFAYYAMGWYRQAPGKERELVAAITDSGGNTFYADSVKGRFTISRDNAKNTVYLQMNSLKPEDTAVYYCAADPDGWGFVYPRYDYWGQGTQVTVSS,low polyreactivity
14,QVQLGESGGGLVQAGGSLRLSCAASGITFTHYVMGLYRQAPGKERELVAAISTSGGRTYYADSVKGRFTISRDHAKNSVYLQMNSLKPEDTAVYYCAAVSRAPGLRYDYWGQGTQVTVSS,high polyreactivity
15,QVQLVESGGGLVQAGGSLRLSCAASGIIFSYYTMGWYRPAPGKERELVAAISARGGRTYYADSVKGRFTISRDNAKNTVYLQMNSLKPEDTAVYYCAASWSTEYYWGQGTQVTVSS,high polyreactivity
16,QVQLVESGGGLVQAGGSLRLSCAASGLTFPRNTMGWYRQAPGKERELVAVISSSGGITYYADSVKGRFTISRDNAKNTVYLQMNSLKPEDTAVYYCAARTRVPRMGYWGQGTQVTVSS,high polyreactivity
17,QVQLVESGGGLVQAGGSLRLSCAASGNTFGFNAMGWYTQAPGKERELVAAIRRGSGRTYYADSVKGRFTISRDNAKNTVYLQMNSLKPEDTAVYYCAAAPTTGKRPGYYYWGLGTQVTVSS,high polyreactivity
18,QVQLVESGGGLVQAGGSLRLSCAASGSIYPFYAMGWYRQAPGKERELVATISSGDSTHYADSVKGRFTISRDNAKNTVYEQMNSLKPEDTAVYYCNRRNKAQRFFDLGYWGQGTQVTVSS,low polyreactivity
19,QVQLVESGGGLVQAGGSLRLSCASSGSIFVANAMGWYRQAPGKERELVAAISVRGGRTYYADSVKGRFTISRDNAKNTVYLQMNSLKPEDTAVYYCARVLRSDVADYDYWGQGTQVSVSS,high polyreactivity
20,QVQLVESGGGLVQAGGSLRLSCAASGFIFDSYAMGWNRQAPGKERELVAAIDKRGGRTYYADSVKGRFTISRDNGKNTVYLQMNSLKPEDTAVYYCAADDYTGYGYWGQGTQVTVSS,high polyreactivity
21,QVQLVESGGGLVQAGGSLRLSCAASGYTFWDYTMGWYRQAPGKERELVAAISSSGSSTYYADSVKGRFTISRDNAKNTVYLQMNSLKPEDTAVYYCAAYSRRQWKYDYWGQGTQVTVSS,high polyreactivity
22,QVQLVESGGGLVQAGGSLRLSCAASGSIFGYYAMGWYRQAPGKERELVARISYSGGTTYYADSVKGRFTISRDNAKNTVYLQMNSLKPEATAVYYCNARIPYSWRYGYWGQGTQVTVSS,high polyreactivity

row,Sequence,polyreactivity (PSR sort gate)
1,QVQLVESGGGLVQAGGSLRLSCAASGFTFSVYAMGWYRQAPGKERELVADIDWSGGSTYYADSVKGRFTISRDNAKNTVYLQMNSLKPEDTAVYYCAADYYYPDSYVQGTSGEYWGQGTQVTVSS,low polyreactivity
2,QVQLVESGGGLVHAGGSLRLSFAASGRTFVNNAMGWYRQAPGKERELVAAITGSCGSTYYADSVKGRFTISRDNAKNTFYLQMNSLKPEYTAVYYCAKRHVGSRYLFDYWGQGTQVTVSS,low polyreactivity
3,QVHLVESGGGLVQAGGSLLISCSASGSTFGTNAMGWYRQAPGKERDLVASITWSGGNTNYADSVKGRFTISRDNAKNTVYLQKKSMKPADTAVYYCAAEVFISYGVGGYYSDMDYWGQVTQVTVSS,low polyreactivity
4,QVQFVESGGGLVQAGGSLRLSCAASGSIFYRYTMGSYRQAPGKERELVAAISSRGGSTYYADSVKGRFTISRDNAKNTVYLQMNSLKPEDTAVYYCAARYFRNPVFVIMDYWGQGTQVTVSS,high polyreactivity
5,QVQLVESGGGLVQAGGSLRLSCAASGITFNRYAMGWYRQAPGKERELVAGISRGVSTYYADSVKGRFTISRDNAKNTVYLQMKSLKPEDTAVYYCAAKPVVRYVSFGYDYWGQGTQVTVSS,high polyreactivity
6,QVQLVESGGGLVQAGGSLRLSSAASGRTFQRNVMGWYRQAPGKDRELVAAISSSGGGTYYADSVKGRFTISRDNAKNTVYLQMNSLKPEDTAVYYCAARYRSYGGYGYYYWGLGTQVTVSS,high polyreactivity
7,QVQLVESGGGLLQAGGSLRLSSAASGGTFPKYTKGWYRPAPGKEWELVAAITSRGGTYYADSVKGRFTISRDNAKNSVYLQMNSLKPEDTAVYYCAAEYSYSSYLWYDYWGQGTQVTVSS,high polyreactivity
8,QVQLVESGGGLVQAGGSLRLSCAASGRIFKGYAMGWYRQAPGKERELVAAITWRGGTTYYADSVKGRFTISRDNAKNTVYLQMNSLKPEDTAVYYCATTRYPRSYDYYYWGQGTQVTVSS,high polyreactivity
9,QVQLVESGGGLVQAGGSLRLSCAASGFTFKRNAMGWYRQAPGKERELVAAISWSGSRTYADSVKGRFTISRDYAKNTVYVQMNSLKPEDTAVYYCAASPGRRRRPYASLIRYDYWGQGTQVTVSS,high polyreactivity
10,QVQLVETGGGLVQAGGSLRLSCAASGFNLPIYAMRCYRQPPGKEREFVAAITWTGGSTYYADSVKGRFTISRDNAKNTVYLQMNSLKPEDTAVYYCNAEGPSYYYIIYDYWGQGTQVTVSS,high polyreactivity
11,QVQLVESGGGLVQAGGSLRLSCAASGLIFGINAMGWYRQAPGKERELVASISRSTTRTYYADSVKGRFTISRDNAKNTVYLQMNSLKPEDTAVYYCAARQSPNRWMGYWGQGTQVTVSS,high polyreactivity
12,QVQLVESGGGLVQAGGSLRLSCAASGRTLWSYAMGWYRQAPGKEREIVAAISRRGGITYYADSVKGRFTISRDYAKNTVFLQRISLKPVDTAVFYSAKGAQSYYGGQVKYDYWGQGTQVTVSS,high polyreactivity
13,QVQLVESGGGLVQAGGSLRLSCAASGITFYGYAMGWYRQAPGKERELVAVITSSGSSTYYADSVKGRFTISRDNAKNTVYLQMNSLTPEDTAVYYCNARPGRRSLRSRTYDYWGQGTQVTVSS,high polyreactivity
14,QVQLVESGGGLVQAGGSLRLSCAASGRIFYYYAMGWYRQAPGKERELLAAITRGGGTYYADSVKGRFTISRDNAKNTVYLQMNSLKPEDTAVYYCAKRGPPESHHPYRYRFDYWGKGTQVTVSS,low polyreactivity
15,QVQLVESGGCLVQAGGSLRLSSAASGFIFSRYAMGWYRQATGKERELVASISWGGGSTSYADSVKGRFTISRDNAKYTVYLQMNSLKPEDTAVYYCNARVRSHRFNYWGQGTQVTVSS,high polyreactivity
16,QVQLVESGGGLVQAGGSLRLSCAASGRIFGTYAMGWYRQAPGKERELVAAITQSGGSTYYADSVKGRFTISRDNAKNTVYLQMNSLKPEDTAVYYCKLVKTTSTLGKRRYDYWGQGTQVTVSS,high polyreactivity
17,QVQLVESGGGLVQAGGSLRLSCAASGSIFSYYAMGWYRQAPGKERELVAAISRGGSTYYADSVKGRFTISRDKAKNTVYLQMNSLKPEDTAVYYCNVDSFRYRHTGYGYTRYGYWGQGTQVTVSS,high polyreactivity
18,QVQLLESGGGLDQAGGSLRLTSAASGSIFYGYAMGWYRQAPRKERELVAAISYSGDRTYYADSVKGRFTISRDNAKNTVYLQMNSLKPEDTAVYYCAARKHGGTVRGRRDYWGQGTQVTVSS,high polyreactivity
19,QVQLVESGGGLVQAGGSLRLSCAASGFISTYYAMGWYRQAPGKERELVAAISWNGGSTYYADSVKGRFTISRDNAKNTVYLQMNSLKPEDTAVYYCAAYLGKWRHFYSSDYDYWGQGTQVTVSS,low polyreactivity
20,QVQLVESGGGLVQAGGSLRLSCAASGSIFWGNAMGWYRQAPGKERELVAAIDWSGGSTYYADSVKGRFTISRDNAKNTVYLQMHSLKPEDTAVYYCAASGRYDYDYWGQGTQVTVSS,low polyreactivity
21,QVQLVESGGGLVQAGGSLRLSCAASGRTFGRNGMGWYRQAPGKERELVAAISIGDSTTYADSVKGRFTISRDNAKNTVYLQMNSLKPEDTAVYYCAAEIERYPVWEYRGKYDYWGQGTQVTVSS,low polyreactivity
